T1: low affinity immunoglobulin gamma fc region receptor IIIB (FCGR3B) (CD16b) (human, UniProt O75015 17-200)
T1 construct: Bought recombinant human protein (Santa Cruz Biotechnology); also called FCR3B
T1 chain: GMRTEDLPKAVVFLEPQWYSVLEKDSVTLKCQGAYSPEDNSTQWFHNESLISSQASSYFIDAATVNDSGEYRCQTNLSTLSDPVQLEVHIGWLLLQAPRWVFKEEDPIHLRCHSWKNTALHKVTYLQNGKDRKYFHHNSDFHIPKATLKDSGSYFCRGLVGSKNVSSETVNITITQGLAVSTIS

T2: low affinity immunoglobulin gamma fc region receptor IIA (FCGR2A) (CD32) (human, UniProt P12318 34-217)
T2 construct: Bought recombinant human protein (Santa Cruz Biotechnology); also called FCGR2A receptor
T2 sequence: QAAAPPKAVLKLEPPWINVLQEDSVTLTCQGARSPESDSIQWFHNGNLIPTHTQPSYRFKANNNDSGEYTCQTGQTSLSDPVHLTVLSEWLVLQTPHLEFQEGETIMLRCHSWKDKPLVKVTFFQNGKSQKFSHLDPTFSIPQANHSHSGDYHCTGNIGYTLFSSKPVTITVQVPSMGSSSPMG

B1: JB5 antibody (antibody)
heavy: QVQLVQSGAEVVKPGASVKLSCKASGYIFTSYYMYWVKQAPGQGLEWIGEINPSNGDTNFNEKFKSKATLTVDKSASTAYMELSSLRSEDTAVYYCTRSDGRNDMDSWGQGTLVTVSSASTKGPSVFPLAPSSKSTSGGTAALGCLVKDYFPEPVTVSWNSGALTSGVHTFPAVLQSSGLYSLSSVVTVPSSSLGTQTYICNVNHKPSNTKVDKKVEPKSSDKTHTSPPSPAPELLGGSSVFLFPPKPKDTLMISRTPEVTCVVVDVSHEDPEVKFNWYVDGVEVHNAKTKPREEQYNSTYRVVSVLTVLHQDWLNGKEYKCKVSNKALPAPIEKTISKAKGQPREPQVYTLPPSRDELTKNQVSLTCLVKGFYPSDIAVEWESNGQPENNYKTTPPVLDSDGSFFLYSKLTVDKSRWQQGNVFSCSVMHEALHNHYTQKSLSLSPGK
light: DIVLTQSPATLSVSPGERATISCRASQRVSSSTYSYMHWYQQKPGQPPKLLIKYASNLESGVPARFSGSGSGTDFTLTISSVEPEDFATYYCQHSWEIPPTFGGGTKLEIKRTVAAPSVFIFPPSDEQLKSGTASVVCLLNNFYPREAKVQWKVDNALQSGNSQESVTEQDSKDSTYSLSSTLTLSKADYEKHKVYACEVTHQGLSSPVTKSFNRGEC
notes: The text mostly prints the name as 'JBS'; also called JBS (OCR spelling of JB5 in the text); mutant JBS antibody
B2: hu5c8 antibody (antibody, human IgG1)
heavy: not shown
VL: DIVLTQSPATLSVSPGERATISCRASQRVSSSTYSYMHWYQQKPGQPPKLLIKYASNLESGVPARFSGSGSGTDFTLTISSVEPEDFATYYCQHSWEIPPTFGGGTKLEIK
notes: Humanized 5c8, IgG1; no full light chain entry is named for it; also called parental antibody hu5c8; hu5c8-IgG1

Key:
Experiment in all cases: solid phase ELISA, antibody coated, FCGR titrated
[1] = biological target: T3, high affinity Fc region of IgG receptor IA (FCGR1A) (CD64) (human, UniProt P12314 16-292)
T3 construct: Bought recombinant human protein (Santa Cruz Biotechnology)
Procedure: (§1) The plate was blocked and recombinant human Fe gamma receptor (FCGR) proteins (Santa Cruz Biotechnology, Santa Cruz, California) titrated by 2-fold dilution with a starting concentration of 5 μg/ml. […] After binding and washing, the FCGR was detected using an appropriate FCGR isoform specific murine monoclonal antibody (1000 ng/ml) and a horseradish peroxidase conjugate goat anti-mouse IgG detector antibody.
(§2) The plate was blocked and recombinant human Fe gamma receptor (FCGR) proteins (Santa Cruz Biotechnology, Santa Cruz, California) titrated onto by 2-fold dilution with a starting concentration of 5 μg/ml.

[2] = biological target: T1, low affinity immunoglobulin gamma fc …
Procedure: as §1, §2

[3] = biological target: T4, low affinity immunoglobulin gamma fc region receptor IIIA (FCGR3A) (CD16a) (human, UniProt P08637 17-208)
T4 construct: Bought recombinant human protein (Santa Cruz Biotechnology); also called FCR3A
Procedure: as §1, §2

[4] = biological target: T2, low affinity immunoglobulin gamma fc …
Procedure: as §1, §2

T4 sequence (P08637 17-208 limits assumed): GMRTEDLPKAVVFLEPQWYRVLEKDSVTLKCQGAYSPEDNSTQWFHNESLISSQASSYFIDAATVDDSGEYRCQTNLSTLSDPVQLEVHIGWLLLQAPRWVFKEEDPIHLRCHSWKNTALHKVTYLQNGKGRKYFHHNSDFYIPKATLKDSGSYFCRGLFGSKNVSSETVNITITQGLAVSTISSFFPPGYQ
T3 sequence (P12314 16-292 limits assumed): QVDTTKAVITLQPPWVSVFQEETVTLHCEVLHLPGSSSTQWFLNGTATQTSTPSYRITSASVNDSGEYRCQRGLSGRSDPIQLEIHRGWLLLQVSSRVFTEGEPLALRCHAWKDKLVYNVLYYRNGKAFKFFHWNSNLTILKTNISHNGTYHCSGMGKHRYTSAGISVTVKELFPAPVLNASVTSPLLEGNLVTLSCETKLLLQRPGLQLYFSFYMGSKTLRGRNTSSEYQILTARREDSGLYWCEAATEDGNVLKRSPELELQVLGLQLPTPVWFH

Binder | binding result [1] | binding result [2] | binding result [3] | binding result [4]
B1 | no binding (tested: FCGR titrated from 5 µg/ml) | no binding (tested: FCGR titrated from 5 µg/ml) | no binding (tested: FCGR titrated from 5 µg/ml) | no binding (tested: FCGR titrated from 5 µg/ml)
B2 |  | no binding (tested: FCGR titrated from 5 µg/ml) | no binding (tested: FCGR titrated from 5 µg/ml) | 

Source: US20240043549A1 (ALS THERAPY DEVELOPMENT INSTITUTE, published 2024)
